From patent CN1649900A
Where no end group is shown, it is not given here. [ ]: non-standard residue; d: D form. sY = N[C@@H](Cc1ccc(OS(=O)(=O)O)cc1)C(=O)O

Experiments:
[1] = molecular target: Y1 scFv (human single-chain Fv antibody fragment Y1); test: competition ELISA on glycocalicin, peptide taken as 2.5μM
[2] = molecular target: Y1 scFv (human single-chain Fv antibody fragment Y1); test: competition FACS on washed platelets; peptide 200μM
[3] = molecular target: Y1 scFv (human single-chain Fv antibody fragment Y1); test: competition ELISA on glycocalicin; first of three values, peptide taken as 200μM
[4] = molecular target: Y1 scFv (human single-chain Fv antibody fragment Y1); test: competition ELISA on glycocalicin, peptide taken as 25μM
[5] = molecular target: Y1 scFv (human single-chain Fv antibody fragment Y1); test: competition FACS on washed platelets; peptide 2.5μM
[6] = molecular target: Y1 scFv (human single-chain Fv antibody fragment Y1); test: competition ELISA on glycocalicin; peptide 200μM
[7] = molecular target: Y1 scFv (human single-chain Fv antibody fragment Y1); test: competition ELISA on glycocalicin; peptide 0.5μM
[8] = molecular target: Y1 scFv (human single-chain Fv antibody fragment Y1); test: competition ELISA on glycocalicin; peptide 25μM
[9] = molecular target: Y1 scFv (human single-chain Fv antibody fragment Y1); test: competition ELISA on glycocalicin; peptide 2.5μM
[10] = molecular target: Y1 scFv (human single-chain Fv antibody fragment Y1); test: competition ELISA, Y1 scFv on glycocalicin
[11] = molecular target: glycocalicin purified from human platelets (soluble extracellular fragment of GPIbα) (human) (UniProt P07359); test: ELISA on glycocalicin
[12] = molecular target: Y1 scFv (human single-chain Fv antibody fragment Y1); test: competition ELISA on glycocalicin; peptide 0.5μM; settings: remark: other sources report otherwise
[13] = molecular target: Y1 scFv (human single-chain Fv antibody fragment Y1); test: competition ELISA on glycocalicin; peptide 2.5μM; settings: remark: other sources report otherwise
[14] = molecular target: Y1 scFv (human single-chain Fv antibody fragment Y1); test: competition ELISA on glycocalicin; peptide 200μM; settings: remark: other sources report otherwise
[15] = molecular target: Y1 scFv (human single-chain Fv antibody fragment Y1); test: competition ELISA on glycocalicin; peptide 25μM; settings: remark: other sources report otherwise
[16] = molecular target: Y1 scFv (human single-chain Fv antibody fragment Y1); test: competition FACS on washed platelets; peptide 2.5μM; settings: remark: other sources report otherwise
[17] = molecular target: Y1 scFv (human single-chain Fv antibody fragment Y1); test: competition FACS on washed platelets; peptide 200μM; settings: remark: other sources report otherwise
[18] = molecular target: human platelet glycoprotein Ibα (GPIbα) on platelets or in platelet lysates (human) (UniProt P07359); test: FACS on washed platelets, control without peptide
[19] = molecular target: human platelet glycoprotein Ibα (GPIbα) on platelets or in platelet lysates (human) (UniProt P07359); test: cell-based or functional assay

TDL[sY]D[sY][sY]PEEDTE [P-2-S, sulfated synthetic peptide of GPIbα residues 273-285]
residual binding of Y1 (% of baseline) [1]: 78% | residual binding of Y1 (% of baseline, Geo mean) [2]: 7% | residual binding of Y1 (% of baseline) [3]: 15% | residual binding of Y1 (% of baseline) [4]: 52% | residual binding of Y1 (% of baseline, Geo mean) [5]: 61%

GDEGDTDL[sY]D[sY][sY]P [P-3-S, sulfated synthetic peptide of GPIbα residues 268-280]
residual binding of Y1 (% of baseline) [1]: 80% | residual binding of Y1 (% of baseline, Geo mean) [2]: 26% | residual binding of Y1 (% of baseline) [3]: 21% | residual binding of Y1 (% of baseline) [4]: 67% | residual binding of Y1 (% of baseline, Geo mean) [5]: 82%

GDEGDTDL[sY]D[sY][sY]PEEDTE [P-1-S, sulfated synthetic peptide of GPIbα residues 268-285]
residual binding of Y1 (% of baseline) [6]: 0% | residual binding of Y1 (% of baseline) [7]: 89% | residual binding of Y1 (% of baseline) [8]: 25% | residual binding of Y1 (% of baseline, Geo mean) [2]: 5% | residual binding of Y1 (% of baseline, Geo mean) [5]: 41% | residual binding of Y1 (% of baseline) [9]: 62%

QATEYEYLD[sY]DFLPETE [P-YYY*, PSGL-1 N-terminal peptide sulfated on the third tyrosine]
peptide concentration at which Y1 binding is effectively inhibited [10]: 1 µM

REEGRQHFFLLEGRSSYS [EGR negative control peptide]
residual binding of Y1 (% of baseline) [6]: 85% | residual binding of Y1 (% of baseline) [7]: 121% | residual binding of Y1 (% of baseline) [8]: 89% | residual binding of Y1 (% of baseline, Geo mean) [2]: 119% | residual binding of Y1 (% of baseline, Geo mean) [5]: 96% | residual binding of Y1 (% of baseline) [9]: 100%

B1: CONY1, Y1 scFv monomer in which the myc tag is deleted or replaced by Lys-Ala-Lys (KAK) (scFv)
scFv: EVQLVESGGGVVRPGGSLRLSCAASGFTFDDYGMSWVRQAPGKGLEWVSGINWNGGSTGYADSVKGRFTISRDNAKNSLYLQMNSLRAEDTAVYYCARMRAPVIWGQGTLVTVSRGGGGSGGGGSGGGGSSELTQDPAVSVALGQTVRITCQGDSLRSYYASWYQQKPGQAPVLVIYGKNNRPSGIPDRFSGSSSGNTASLTITGAQAEDEADYYCNSRDSSGNHVVFGGGTKLTVLG
concentration needed to reach 0.8 OD units [11]: 12.8 微克/毫升

QATE[sY]EYLDYDFLPETE [P-Y*YY, PSGL-1 N-terminal peptide sulfated on the first tyrosine]
peptide concentration at which Y1 binding is effectively inhibited [10]: 100 µM

GDEGDTDLYDYYPEEDTE [P-1, non-sulfated synthetic peptide of GPIbα residues 268-285]
residual binding of Y1 (% of baseline) [12]: 88% | residual binding of Y1 (% of baseline) [13]: 94% | residual binding of Y1 (% of baseline) [14]: 61% | residual binding of Y1 (% of baseline) [15]: 71% | residual binding of Y1 (% of baseline, Geo mean) [16]: 106% | residual binding of Y1 (% of baseline, Geo mean) [17]: 87%

B2: Y1 scFv (human single-chain Fv antibody fragment Y1) (scFv)
scFv: EVQLVESGGGVVRPGGSLRLSCAASGFTFDDYGMSWVRQAPGKGLEWVSGINWNGGSTGYADSVKGRFTISRDNAKNSLYLQMNSLRAEDTAVYYCARMRAPVIWGQGTLVTVSRGGGGSGGGGSGGGGSSELTQDPAVSVALGQTVRITCQGDSLRSYYASWYQQKPGQAPVLVIYGKNNRPSGIPDRFSGSSSGNTASLTITGAQAEDEADYYCNSRDSSGNHVVFGGGTKLTVLGAAAEQKLISEEDLNGAA
residual binding of Y1 (% of baseline, Geo mean) [18]: 114% | 凝集作用%; washed platelets, ristocetin; Y1 scFv 12.5微克/毫升 [19]: 67% | 凝集作用%; washed platelets, ristocetin; Y1 scFv 14微克/毫升 [19]: 92% | 凝集作用%; washed platelets, ristocetin; Y1 scFv 25微克/毫升 [19]: 23% | 抑制百分比%; platelet-rich plasma, ristocetin; Y1 scFv25微克/毫升 [19]: 13% | 抑制百分比%; ristocetin-induced agglutination of washed platelets; Y1 scFv 25微克/毫升 [19]: 77% | 抑制百分比%; ristocetin-induced aggregation in platelet-rich plasma; Y1 scFv50微克/毫升 [19]: 80% | 抑制百分比%; washed platelets, ristocetin; Y1 scFv 12.5微克/毫升 [19]: 33% | 抑制百分比%; washed platelets, ristocetin; Y1 scFv 14微克/毫升 [19]: 8% | 聚集作用%; platelet-rich plasma, ristocetin; Y1 scFv25微克/毫升 [19]: 87% | 聚集作用%; platelet-rich plasma, ristocetin; Y1 scFv50微克/毫升 [19]: 20%
